The target in assay [1] is non-selective somatostatin receptor (sst).
Assay [2] has as its target human natriuretic peptide receptor-A (NPR-A) (human) (UniProt P16066). In words: radioligand binding.
In assay [3] the target is human natriuretic peptide receptor-C (NPR-C) (human) (UniProt P17342). In words: radioligand binding.
The target of assay [4] is human natriuretic peptide receptor-A (NPR-A) (human) (UniProt P16066).
The target of assay [5] is human natriuretic peptide receptor-B (NPR-B) (human) (UniProt P20594).

For orientation: Ki means the equilibrium dissociation constant of an inhibitor or competing ligand from its target.

Chain of human natriuretic peptide receptor-A (NPR-A) (human) (P16066 33-1061): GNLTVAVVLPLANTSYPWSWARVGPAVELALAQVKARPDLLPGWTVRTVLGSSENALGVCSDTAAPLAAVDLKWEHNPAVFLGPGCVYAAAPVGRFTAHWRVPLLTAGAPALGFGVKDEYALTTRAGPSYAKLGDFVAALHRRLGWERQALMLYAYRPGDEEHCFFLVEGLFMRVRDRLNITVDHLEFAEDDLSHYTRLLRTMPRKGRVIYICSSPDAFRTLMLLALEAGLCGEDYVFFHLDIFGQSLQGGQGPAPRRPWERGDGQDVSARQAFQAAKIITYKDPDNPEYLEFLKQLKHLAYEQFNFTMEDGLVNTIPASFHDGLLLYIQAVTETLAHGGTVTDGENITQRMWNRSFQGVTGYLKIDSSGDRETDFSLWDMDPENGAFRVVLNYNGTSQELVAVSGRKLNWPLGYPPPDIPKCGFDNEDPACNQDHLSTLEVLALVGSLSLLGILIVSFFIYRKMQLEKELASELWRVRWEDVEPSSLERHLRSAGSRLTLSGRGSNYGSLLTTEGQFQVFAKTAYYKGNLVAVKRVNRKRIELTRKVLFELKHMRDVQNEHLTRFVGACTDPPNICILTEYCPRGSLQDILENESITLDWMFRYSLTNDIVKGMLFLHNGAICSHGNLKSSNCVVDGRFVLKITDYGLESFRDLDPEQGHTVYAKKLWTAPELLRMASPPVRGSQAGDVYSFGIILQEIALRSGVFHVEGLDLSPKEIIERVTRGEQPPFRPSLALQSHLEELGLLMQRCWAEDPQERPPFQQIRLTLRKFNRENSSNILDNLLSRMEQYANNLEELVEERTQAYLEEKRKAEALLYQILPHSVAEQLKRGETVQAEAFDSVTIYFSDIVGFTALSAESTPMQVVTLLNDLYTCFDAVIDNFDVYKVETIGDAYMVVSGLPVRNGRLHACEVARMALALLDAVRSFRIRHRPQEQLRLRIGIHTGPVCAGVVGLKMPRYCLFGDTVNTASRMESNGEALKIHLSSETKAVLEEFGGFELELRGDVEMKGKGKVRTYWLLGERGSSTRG
Chain of human natriuretic peptide receptor-C (NPR-C) (human) (P17342 27-541): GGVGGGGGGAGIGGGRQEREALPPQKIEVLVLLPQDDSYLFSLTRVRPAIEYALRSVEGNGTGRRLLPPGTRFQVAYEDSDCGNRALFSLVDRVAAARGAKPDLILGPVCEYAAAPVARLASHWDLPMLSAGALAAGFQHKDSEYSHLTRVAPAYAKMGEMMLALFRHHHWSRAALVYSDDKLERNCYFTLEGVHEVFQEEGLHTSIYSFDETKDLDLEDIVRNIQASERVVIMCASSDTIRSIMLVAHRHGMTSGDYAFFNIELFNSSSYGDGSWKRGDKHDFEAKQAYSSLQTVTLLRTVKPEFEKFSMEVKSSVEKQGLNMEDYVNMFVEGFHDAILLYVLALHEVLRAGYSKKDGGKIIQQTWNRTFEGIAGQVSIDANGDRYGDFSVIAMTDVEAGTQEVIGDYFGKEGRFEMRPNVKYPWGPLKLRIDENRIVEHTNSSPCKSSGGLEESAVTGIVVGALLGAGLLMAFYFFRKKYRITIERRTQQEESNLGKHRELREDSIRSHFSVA
Chain of human natriuretic peptide receptor-B (NPR-B) (human) (P20594 23-1047): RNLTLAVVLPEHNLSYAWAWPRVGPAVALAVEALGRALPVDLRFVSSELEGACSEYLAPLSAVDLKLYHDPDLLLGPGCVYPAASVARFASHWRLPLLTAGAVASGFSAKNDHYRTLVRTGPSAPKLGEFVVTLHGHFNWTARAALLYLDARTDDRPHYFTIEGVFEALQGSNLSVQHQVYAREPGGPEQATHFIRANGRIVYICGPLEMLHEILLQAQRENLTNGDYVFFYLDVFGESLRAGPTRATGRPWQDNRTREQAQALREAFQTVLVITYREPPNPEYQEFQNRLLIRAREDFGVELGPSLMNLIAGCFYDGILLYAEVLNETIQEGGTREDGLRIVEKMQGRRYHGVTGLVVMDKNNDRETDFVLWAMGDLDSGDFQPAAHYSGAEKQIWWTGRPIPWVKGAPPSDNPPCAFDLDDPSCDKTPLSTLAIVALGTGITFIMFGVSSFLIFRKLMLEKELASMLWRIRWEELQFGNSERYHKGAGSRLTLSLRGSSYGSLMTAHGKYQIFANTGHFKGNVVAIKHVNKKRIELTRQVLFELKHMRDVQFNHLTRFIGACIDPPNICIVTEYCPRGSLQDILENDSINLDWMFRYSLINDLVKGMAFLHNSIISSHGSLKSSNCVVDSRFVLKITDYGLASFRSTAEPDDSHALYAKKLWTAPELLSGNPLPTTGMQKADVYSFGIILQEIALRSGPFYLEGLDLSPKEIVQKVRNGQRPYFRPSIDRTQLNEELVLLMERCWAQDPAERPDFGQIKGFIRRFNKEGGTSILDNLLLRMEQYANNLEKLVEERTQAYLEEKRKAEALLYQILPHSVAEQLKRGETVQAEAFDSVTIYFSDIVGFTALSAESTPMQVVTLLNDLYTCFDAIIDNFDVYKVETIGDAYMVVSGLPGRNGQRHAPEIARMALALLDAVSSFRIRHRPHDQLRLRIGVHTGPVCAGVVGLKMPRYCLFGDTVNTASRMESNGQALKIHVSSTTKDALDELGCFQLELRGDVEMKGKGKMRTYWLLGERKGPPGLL

Take “PL-3994 (Hept-cyclo(Cys-His-Phe-D-Ala-Gly-Arg-D-Nle-Asp-Arg-Ile-Ser-Cys)-Tyr-[Arg mimetic]-NH2) (peptide)”: in assay [1], the Ki amounted to 4200 nM.
The substance “human brain natriuretic peptide (hBNP) (ligand)” had an inhibitory constant (Ki) in assay [2] of 3 nM. For the same substance, the Ki in assay [3] was 0.7 nM. Moreover, in assay [4], the cGMP generation in HEK293 cells expressing the receptor, EC50 came out at 2 nM and the cGMP generation in HEK293 cells expressing the receptor, Emax was 96 % hANP. The substance further registered a cGMP generation in HEK293 cells expressing the receptor (up to 10 µM), Emax in assay [5] of 9 % hCNP.

(Values after PMC4070431.)
